Key:
Importin-β = target: T1, Importin-β (Homo sapiens, UniProt Q14974); experiment: GST pulldown of Importin-β with RanQ69L (dissociation); type: binding; conditions: GM130:RanQ69L:Importin 1:4:1; three independent experiments
T1 construct: GST (N, cleaved yes); made in house; host or cells: Escherichia coli Rosetta
Description: Fig. 4 Ran and a phosphate moiety repress GM130 and Importin-β interaction. a SEC (Superdex 200) elution profiles for the Importin-β•GST-GM130-WT complex (black line), Importin-β (gray line), and GST-GM130-WT (light gray line). The void volume (Vo) is indicated. b–d The peak fractions of the Importin-β•GST-GM130-WT complex (b), Importin-β (c), and GST-GM130-WT (d) were analyzed by SDS–PAGE and stained with Coomassie blue. e, f ITC titration curves (upper) and binding isotherms (lower) of Importin-β with GM130-NLS WT (e) and GM130-NLS phospho-S25 (f). Kd values are indicated. g Competition binding assay. GST-GM130-S25D and Importin-β were incubated with indicated concentrations of GFP-IBB. Samples pulled down by GST beads were analyzed by SDS–PAGE and stained with Coomassie blue. […] GST-bound samples were analyzed by SDS–PAGE and stained with Coomassie blue. i, k Band intensities of Importin-α or Importin-β from the SDS–PAGE gels in h, j were used to determine averages of bound protein. […]
A 1:1 molar ratio of GST-GM130-WT or mutant GM130 and Importin-α FL was incubated with glutathione-coupled sepharose beads (GE Healthcare). After pre-washing with 150 mM NaCl, proteins were eluted by a buffer containing 50 mM reduced glutathione and analyzed by SDS–PAGE. […]

Importin-α (a.a. 70–498) = experiment: CD spectra thermal melting assay of complexes with Importin-α; type: physicochemical; conditions: CD at 222 nm, 20 to 75 °C, 0.2 mg/ml, 20 mM HEPES pH 7.4, 50 mM NaCl, 3 mM DTT; average of three scans; complex with Importin-α (a.a. 70–498)
Description: The CD spectra of the GM130-WT(1–48)•Importin-α (a.a. 70–498), GM130-S25D(1–48)•Importin-α (a.a. 70–498), and GM130-NLS phospho-S25 (a.a. 13–38)•Importin-α (a.a. 70–498) complexes were recorded using an AVIV CD400 spectrometer. Thermal melting temperatures were determined by measuring the ellipticity at a wavelength of 222 nm as a function of temperature from 20 to 75 °C. The protein concentration used in the CD measurements was 0.2 mg/ml in a buffer of 20 mM HEPES (pH 7.4), 50 mM NaCl, and 3 mM DTT. Measurements were taken three times and averaged.

p115-CTD = experiment: Competition binding assay, p115-CTD remaining on GST-GM130 in presence of Importin-α FL; conditions: 40 μM Importin-α FL; three independent experiments
Description: Fig. 3 GM130 interacts with full-length Importin-α. a, b ITC titration curves (upper) and binding isotherms (lower) of Importin-α FL with GM130-NLS WT (a) and GM130-NLS phospho-S25 (b). Kd values are indicated. c Pulldown assays of Importin-α FL with GM130-WT or GM130-S25D. GST-tagged GM-130-WT or GM130-S25D was incubated with Importin-α FL. GST-bound samples were analyzed by SDS–PAGE and stained with Coomassie blue. d Competition binding assay. p115-CTD was incubated with either GST-GM130-WT or GST-GM130-S25D in the presence of indicated concentrations of Importin-α FL. Samples pulled down by GST beads were analyzed by SDS–PAGE and stained with Coomassie blue. e, f Band intensities of Importin-α FL and p115-CTD from the SDS–PAGE gels in d were quantified and normalized by GST-GM130 intensity. Quantitative plots show normalized Importin-α FL intensities (e) and percent p115-CTD remaining on GM130 (f).
To examine whether Importin-α FL also competes with p115-CTD for GM130 binding, we carried out competition binding assays in the presence of Importin-α FL, p115-CTD, and GM130. […] Moreover, we observed a ~2-fold increase in Importin-α FL pulldown by the phosphomimetic mutant (GM130-S25D) compared to wild-type GM130 (40 μM Importin-α FL; Fig. 3d, e). […]

T1 sequence (Q14974 whole entry): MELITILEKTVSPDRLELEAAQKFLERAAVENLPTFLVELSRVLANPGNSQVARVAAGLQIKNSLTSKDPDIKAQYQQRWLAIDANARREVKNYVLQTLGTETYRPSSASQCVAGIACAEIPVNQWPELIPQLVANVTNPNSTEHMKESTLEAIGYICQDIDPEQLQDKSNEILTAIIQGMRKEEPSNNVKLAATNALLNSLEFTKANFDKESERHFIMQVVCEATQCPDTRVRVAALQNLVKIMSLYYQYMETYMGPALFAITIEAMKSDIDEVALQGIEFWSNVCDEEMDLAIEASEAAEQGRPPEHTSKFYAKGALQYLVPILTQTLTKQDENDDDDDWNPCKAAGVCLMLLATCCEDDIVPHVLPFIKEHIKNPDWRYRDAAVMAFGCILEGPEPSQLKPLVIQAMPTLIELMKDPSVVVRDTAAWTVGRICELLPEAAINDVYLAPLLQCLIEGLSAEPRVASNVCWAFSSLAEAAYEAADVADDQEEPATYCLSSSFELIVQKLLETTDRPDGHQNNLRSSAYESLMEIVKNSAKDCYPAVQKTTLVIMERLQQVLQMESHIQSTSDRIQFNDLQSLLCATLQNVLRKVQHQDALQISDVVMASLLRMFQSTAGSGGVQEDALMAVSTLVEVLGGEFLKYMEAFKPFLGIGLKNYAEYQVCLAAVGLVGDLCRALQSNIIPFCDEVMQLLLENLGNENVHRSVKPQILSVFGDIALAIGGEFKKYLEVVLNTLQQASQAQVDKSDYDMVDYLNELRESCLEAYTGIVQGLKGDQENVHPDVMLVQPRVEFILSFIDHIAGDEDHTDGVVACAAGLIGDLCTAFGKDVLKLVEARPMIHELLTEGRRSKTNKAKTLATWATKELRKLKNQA

B1: GM130-WT: wild type GM130 N-terminal region (a.a. 1-85) (protein)
chain: MWPQPRLPPRPAMSEETRQSKLAAAKKKLREYQQRNSPGVPTGAKKKKKIKNGSNPETTTSGGCHSPEDTPKDNAATLQPSDDTVLPGGVPSPGASLTSMAASQNHDADNVPNLMDETKTFSSTESLRQLSQQLNGLVCESATCVNGEGPASSANLKDLESRYQQLAVALDSSYVTNKQLNITIEKLKQQNQEITDQLEEEKKECHQKQGALREQLQVHIQTIGILVSEKAELQTALAHTQHAARQKEGESEDLASRLQYSRRRVGELERALSAVSTQQKKADRYNKELTKERDALRLELYKNTQSNEDLKQEKSELEEKLRVLVTEKAGMQLNLEELQKKLEMTELLLQQFSSRCEAPDANQQLQQAMEERAQLEAHLGQVMESVRQLQMERDKYAENLKGESAMWRQRMQQMSEQVHTLREEKECSMSRVQELETSLAELRNQMAEPPPPEPPAGPSEVEQQLQAEAEHLRKELEGLAGQLQAQVQDNEGLSRLNREQEERLLELERAAELWGEQAEARRQILETMQNDRTTISRALSQNRELKEQLAELQSGFVKLTNENMEITSALQSEQHVKRELGKKLGELQEKLSELKETVELKSQEAQSLQQQRDQYLGHLQQYVAAYQQLTSEKEVLHNQLLLQTQLVDQLQQQEAQGKAVAEMARQELQETQERLEAATQQNQQLRAQLSLMAHPGEGDGLDREEEEDEEEEEEEAVAVPQPMPSIPEDLESREAMVAFFNSAVASAEEEQARLRGQLKEQRVRCRRLAHLLASAQKEPEAAAPAPGTGGDSVCGETHRALQGAMEKLQSRFMELMQEKADLKERVEELEHRCIQLSGETDTIGEYIALYQSQRAVLKERHREKEEYISRLAQDKEEMKVKLLELQELVLRLVGDRNEWHGRFLAAAQNPADEPTSGAPAPQELGAANQQGDLCEVSLAGSVEPAQGEAREGSPRDNPTAQQIMQLLREMQNPRERPGLGSNPCIPFFYRADENDEVKITVI
- release of Importin-β from Importin-β•GM130 complex by RanQ69L (Importin-β): ~ 47%
- Tm (Importin-α (a.a. 70–498)): ~ 44 °C
- p115-CTD remaining on GM130 (p115-CTD): ~ 38%

— publication PMC6754406, “Ran pathway-independent regulation of mitotic Golgi disassembly by Importin-α” (Nature Communications, 2019)
